The values that follow are results of earlier work, collected in PMC4900764.

The Kd is the constant that tells how readily two partners part at equilibrium.

The target of this data set is PEX5 (Saccharomyces cerevisiae) (UniProt P35056). As to the kind of experiment: ITC. (In general: Isothermal titration calorimetry measures the heat released or taken up as one component is titrated into another.)
Sequence of UniProt P35056 (P35056 whole entry): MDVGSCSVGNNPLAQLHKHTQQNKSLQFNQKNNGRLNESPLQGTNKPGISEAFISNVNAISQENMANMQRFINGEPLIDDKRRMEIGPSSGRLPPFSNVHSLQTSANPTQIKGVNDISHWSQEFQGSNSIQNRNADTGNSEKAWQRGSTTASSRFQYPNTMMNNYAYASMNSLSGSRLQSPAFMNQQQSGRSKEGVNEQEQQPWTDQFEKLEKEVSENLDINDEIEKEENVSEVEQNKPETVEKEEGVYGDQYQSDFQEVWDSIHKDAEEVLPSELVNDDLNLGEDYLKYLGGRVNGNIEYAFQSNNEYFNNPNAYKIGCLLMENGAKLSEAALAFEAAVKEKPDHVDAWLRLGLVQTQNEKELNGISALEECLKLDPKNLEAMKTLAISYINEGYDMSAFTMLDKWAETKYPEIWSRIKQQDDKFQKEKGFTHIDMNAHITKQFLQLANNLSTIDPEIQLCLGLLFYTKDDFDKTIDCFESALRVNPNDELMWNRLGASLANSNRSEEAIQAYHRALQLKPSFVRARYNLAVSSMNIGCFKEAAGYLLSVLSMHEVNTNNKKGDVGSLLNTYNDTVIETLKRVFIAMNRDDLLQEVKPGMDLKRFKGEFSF

Take PCS60 (from UniProt P38137): the Kd is 0.19 µM.
